{"source": "patent US20230392126A1", "about": "“TISSUE ORGANOIDS” (priority 2016, published 2023)", "assay": "Acquisition of ethanol CPP in GhBChE and GWT mice", "format": "in vivo, mouse", "conditions": "2 g/kg ethanol i.p., specificity control", "protocol": "CPP apparatus: The CPP apparatus (FIG. 17; Med Associates, E. Fairfield, VT, USA) consisted of two larger chambers (16.8×12.7×12.7 cm), which were separated by a smaller chamber (7.2×12.7×12.7 cm) as previously described (Yan et al., 2013). […] Time spent in each chamber was measure via photobeam breaks and recorded. CPP was determined on testing days via time spent in the drug-paired side minus time spent in the saline-paired side.\nAcquisition of CPP: A biased CPP procedure was used similar to that from a previous study (Yan et al., 2013). Acquisition of CPP consisted of three sequential procedures—pretest, conditioning, and test. […] On Day 6 (test day) mice were allowed to explore the entire chambers for 20 min and time spent in each area was recorded. […]\nNext, protection against development of cocaine-seeking was assessed using the conditioned place preference (CPP) paradigm, which is thought to model reward learning and seeking because experimental animals approach and remain in contact with cues that have been paired with the effects of the reward. hBChE-expressing cells were grafted to cocaine-naïve mice with GWT animals as controls. […] As an additional control, ethanol CPP was measured after 4 days of conditioning in GhBChE and GWT mice."}
{"molecule": "hBChE: modified human butyrylcholinesterase (E30-6, SEQ ID NO: 41), cocaine hydrolase, expressed from engineered epidermal cells / skin grafts (protein, Human mutant BChE) MHSKVTIICIRFLFWFLLLCMLIGKSHTEDDIIIATKNGKVRGMNLTVFGGTVTAFLGIPYAQPPLGRLRFKKPQSLTKWSDIWNATKYANSCCQNIDQSFPGFHGSEMWNPNTDLSEDCLYLNVWIPAPKPKNATVLIWIYGGGFQTGTSSLHVYDGKFLARVERVIVVSMNYRVGALGFLALPGNPEAPGNMGLFDQQLALQWVQKNIAAFGGNPKSVTLFGESSGAASVSLHLLSPGSHSLFTRAILQSGSANAPWAVTSLYEARNRTLNLAKLTGCSRENETEIIKCLRNKDPQEILLNEAFVVPYGTALGVNFGPTVDGDFLTDMPDILLELGQFKKTQILVGVNKDEGTWFLVGGAPGFSKDNNSIITRKEFQEGLKIFFPGVSEFGKESILFHYTDWVDDQRPENYREALGDVVGDYNFICPALEFTKKFSEWGNNAFFYYFEHRSSKLPWPEWMGVMHGYEIEFVFGLPLERRDNYTKAEEILSRSIVKRWANFAKYGNPNETQNNSTSWPVFKSTEQKYLTLNTESTRIMTKLRAQQCRFWTSFFPKVLEMTGNIDEAEWEWKAGFHRWNNYMMDWKNQFNDYTSKKESCVGL", "values": [{"measurement": "ethanol CPP after 4 days of conditioning", "result": "spent significantly more time in ethanol-paired environments"}]}
